Tests used:
[1] = system: Antithrombin III (AT-III), plasma purified human, in complex with full-length unfractionated heparin (UFH)
Factor X = Factor X (UniProt P00742)
Factor X (FX) = Factor X (FX) (UniProt P00742)
[2] = target: Factor X (FX), active site titrated and DFP/EGR-cmk treated zymogen (UniProt P00742)
[3] = system: plasma purified human AT-III (antithrombin III), in complex with low molecular weight heparin; assay: same assay; ratio of K0.5 to that of Catalyst Biosciences WT FIXa

Chain of Factor X (FX), active site titrated and DFP/EGR-cmk treated zymogen (P00742 41-488): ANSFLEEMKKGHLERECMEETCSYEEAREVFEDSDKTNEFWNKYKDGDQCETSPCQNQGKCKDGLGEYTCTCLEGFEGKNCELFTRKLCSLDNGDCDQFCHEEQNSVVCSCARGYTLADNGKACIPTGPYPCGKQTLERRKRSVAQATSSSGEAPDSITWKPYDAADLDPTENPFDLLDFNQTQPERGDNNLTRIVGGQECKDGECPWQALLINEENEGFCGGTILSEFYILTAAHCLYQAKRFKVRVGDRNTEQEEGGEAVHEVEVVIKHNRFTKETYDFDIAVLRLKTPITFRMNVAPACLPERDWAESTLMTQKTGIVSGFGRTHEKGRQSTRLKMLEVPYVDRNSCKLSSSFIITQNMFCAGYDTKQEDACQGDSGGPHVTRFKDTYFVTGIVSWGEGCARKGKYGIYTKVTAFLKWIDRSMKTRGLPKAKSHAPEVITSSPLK
Chain of Factor X (FX) (P00742 41-488): as above
Chain of Factor X (P00742 41-488): as above

With FIXa N167D the K0.5 [1] was 12 nM.
FIXa-A103N/N105S/Y155F was tested, and the kcat (Factor X) was 3.2 s⁻¹, the “% of WT (kcat/KM)” value (Factor X (FX)) was 85% and the kcat/KM (M^-1s^-1) (Factor X (FX)) was 3.9e+07 M⁻¹ s⁻¹.
For “FIXa A103N/N105S (A[103]N/N[105]S by chymotrypsin numbering)”, the kcat [2] was 3.1 s⁻¹.
For FIXa-S53A, the kcat (Factor X) was 3.7 s⁻¹, the “% of WT (kcat/KM)” value (Factor X (FX)) was 76% and the kcat/KM (M^-1s^-1) (Factor X (FX)) was 3.5e+07 M⁻¹ s⁻¹.
“FIXa S53A (S[53]A by chymotrypsin numbering)” gave a kcat [2] of 3.7 s⁻¹.
In the case of “FIXa D104N/K106S/Y155F (D[104]N/K[106]S/Y[155]F by chymotrypsin numbering)”, the kcat [2] is reported as 2.9 s⁻¹.
With FIXa Y155Q the K0.5 [1] was 23 nM.
In the case of FIXa S158D, the K0.5 [1] is reported as 15 nM.
For “FIXa D64N (D[64]N by chymotrypsin numbering)”, the kcat [2] was 1.2 s⁻¹.
FIXa Y155H was tested, and the K0.5 [1] was 25 nM.
For “FIXa D85N (D[85]N by chymotrypsin numbering)”, the kcat [2] was 4.2 s⁻¹.
FIXa S158E was tested, and the K0.5 [1] was 14 nM.
FIXa S53A was tested, and the K0.5 [1] was 27 nM and the K0.5-mut/K0.5-wt [1] was 1.4.
For FIXa T159A, the K0.5 [1] was 33 nM.
FIXa D104N/K106S/Y155F was tested, and the K0.5 [1] was 6 nM and the K0.5-mut/K0.5-wt [1] was 0.3.
With FIXa A103N/N105S the K0.5 [1] was 20 nM and the K0.5-mut/K0.5-wt [1] was 1.
With FIXa-D85N the K0.5-mut/K0.5-wt [3] was 1.1, the kcat (Factor X) was 4.1 s⁻¹ and the “% of WT (kcat/KM)” value (Factor X (FX)) was 153%. The kcat/KM (Factor X (FX)) was 7e+07 M⁻¹ s⁻¹ and the kcat/KM (M^-1s^-1) (Factor X (FX)) was 7.3e+07 M⁻¹ s⁻¹.
For “FIXa D104N/K106S (D[104]N/K[106]S by chymotrypsin numbering)”, the kcat [2] was 3.1 s⁻¹.
With FIXa-A103N/N105S the K0.5-mut/K0.5-wt [3] was 1.1.
In the case of FIXa N157D, the K0.5 [1] is reported as 17 nM.
For FIXa-D104N/K106S, the K0.5-mut/K0.5-wt [3] was 0.9, the “% of WT (kcat/KM)” value (Factor X (FX)) was 83% and the kcat/KM (M^-1s^-1) (Factor X (FX)) was 3.8e+07 M⁻¹ s⁻¹.
Substance FIXa-D64N has a kcat (Factor X) of 1.2 s⁻¹ and a kcat/KM (M^-1s^-1) (Factor X (FX)) of 1e+07 M⁻¹ s⁻¹.
With FIXa T172A the K0.5 [1] was 16 nM.
FIXa-K106N/V108S was tested, and the K0.5-mut/K0.5-wt [3] was 1.6, the kcat (Factor X) was 2.5 s⁻¹ and the “% of WT (kcat/KM)” value (Factor X (FX)) was 60%. The kcat/KM (M^-1s^-1) (Factor X (FX)) was 2.8e+07 M⁻¹ s⁻¹.
Substance FIXa-K5A has a kcat (Factor X) of 3.5 s⁻¹.
FIXa D64A showed a K0.5 [1] of 16 nM and a K0.5-mut/K0.5-wt [1] of 0.8.
FIXa A103N/N105S/Y155F showed a K0.5 [1] of 11 nM and a K0.5-mut/K0.5-wt [1] of 0.6.
FIXa K5A showed a K0.5 [1] of 22 nM, a K0.5-mut/K0.5-wt [1] of 1.2 and a KM (Factor X (FX)) of 0.0654 µM.
In the case of FIXa-D104N/K106S/Y155F, the kcat (Factor X) is reported as 2.9 s⁻¹, the “% of WT (kcat/KM)” value (Factor X (FX)) is reported as 78% and the kcat/KM (M^-1s^-1) (Factor X (FX)) is reported as 3.6e+07 M⁻¹ s⁻¹.
Substance “FIXa K5A (K[5]A by chymotrypsin numbering)” has a kcat [2] of 3.1 s⁻¹.
“FIXa D64A (D[64]A by chymotrypsin numbering)” showed a kcat [2] of 0.3 s⁻¹.
For “BeneFIX Coagulation Factor IX (Recombinant), activated (FIXa)”, the K0.5-mut/K0.5-wt [3] was 0.9.
Plasma Purified FIXa was tested, and the K0.5 [1] was 30 nM.
FIXa-S61A was tested, and the “% of WT (kcat/KM)” value (Factor X (FX)) was 105% and the kcat/KM (M^-1s^-1) (Factor X (FX)) was 4.8e+07 M⁻¹ s⁻¹.
In the case of FIXa S61A, the K0.5 [1] is reported as 19 nM and the K0.5-mut/K0.5-wt [1] is reported as 1.
FIXa T169A gave a K0.5 [1] of 17 nM.
For “FIXa A103N/N105S/Y155F (A[103]N/N[105]S/Y[155]F by chymotrypsin numbering)”, the kcat [2] was 3.2 s⁻¹.
For FIXa N167Q, the K0.5 [1] was 12 nM.
Substance FIXa N157Q has a K0.5 [1] of 16 nM.
Substance FIXa D104N/K106S has a K0.5 [1] of 20 nM and a K0.5-mut/K0.5-wt [1] of 1.
FIXa-D64A showed a kcat (Factor X) of 0.3 s⁻¹ and a kcat/KM (M^-1s^-1) (Factor X (FX)) of 2.5e+06 M⁻¹ s⁻¹.
FIXa Y155F was tested, and the K0.5 [1] was 13 nM.
FIXa D85N showed a K0.5 [1] of 17 nM and a K0.5-mut/K0.5-wt [1] of 0.9.

— patent US20210230570
